Test results: the nanobody polyreactivity screen of Harvey et al. (2022)

Assay: yeast display, Sf9 membrane polyspecificity reagent, FACS + sequencing; frameworks hold sequencing errors
Outline: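 Polyreactivity labels are assigned by the sorting gate from which each nanobody was recovered. The gates were low and high (top ~1%), set on anti-HA fluorescence for expression and streptavidin fluorescence for reagent binding. Before sorting, galactose-induced (36–48 hours) yeast display cells were stained for 1 hour at 4 °C with 10% biotinylated, detergent-solubilized Sf9 membrane reagent.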

| Sequence | polyreactivity (PSR sort gate) |
| --- | --- |
| QVQLVESGGGLVQAGGSLRLSCAASGLIIGYNAMGLYRQAPGKERELVAAISRSGTHTYYADSVKGRFTISRDNAKNTFNLQMNSLIPEDTAVYYCNATNRRWHRPYSTYWYYYWGQGTQVTVSS | high polyreactivity |
| QVQLVESGGGLVQAGGSLRLSCAASGLIITAYAMGWYRQAPGKERELVAAITGSGGRTYYADSVKGRFTISRDNAKNTVYLQMNSLKPEDTAVYYCAADFPARGSSTSDYWGQGTQVTVSS | high polyreactivity |
| QVQLVESGGGLVQAGGSLRLSCAASGLIIWYYAMGWYRQAPGKERELVAAISRSGGRTYYADSVKGRFTISRDNAKNTVYLQMNSLKPEDTAVNYCNADVYRGYDYWGQGTQVTVSS | high polyreactivity |
| QVQLVESGGGLVQAGGSLRLSCAASGLIIYRYGMGWYRQAPGKERELVAAISYSGSSTYYADSVKGRFTISRDNAKNTVYLQMISLKPEDTAVYYCAAQSTRPYPGRYYYWGQGTQVTVSS | high polyreactivity |
| QVQLVESGGGLVQAGGSLRLSCAASGLIIYYYAMGWYRQAPGKERELVAAISGSSGASTYYADSVKGRFTISRVNAKNTVYIQMNSLKPEDSAVYYCAADRGYWRYDYWGQGTQVTVSS | low polyreactivity |
| QVQLVESGGGLVQAGGSLRLSCAASGLILANYAMGWYRQAPGKERELVAAISSSGGSTYYADSVKGRFTISRDNAKNTVYLQMNSLKPEDTAVYYCAAYPLYRRRWTGDYWGQGTQVTVSS | high polyreactivity |
| QVQLVESGGGLVQAGGSLRLSCAASGLILKYYAMGWYRQAPGKEREFVAAITRRGGITYYADSVKGRFTISRDNAKNTVYLQMNSLKPEDTAVYSCAADPILGSLAYWRYSYPLYDYWGQGTQVTVSS | low polyreactivity |
| QVQLVESGGGLVQAGGSLRLSCAASGLILNYYTMGWYRQAPGKERELVATISSSTGSTYYADSVKGRFTISRDNAKNTVYLQMNSLKPEDTAVYYCAADHWSYWQIYDYWGQGTQVTVSS | low polyreactivity |
| QVQLVESGGGLVQAGGSLRLSCAASGLILRKYAMGWYRQAPGKEREFVAAITQTGSRTYYADSVKGRFTISRDNAKNPVYLQMNSLKPEDTAVYYCAADLPRWGSYGYGKMDHWGQGTQVTVSS | high polyreactivity |
| QVQLVESGGGLVQAGGSLRLSCAASGLILSSNAMGWYRKAPGQERELVAAITWDGDRTYADSVKGRFTISRDNAKNTVYLQMNSLKPEDTAVYYCAARIGTGVLTGRGANSHMDYWGQGTQVTVSS | low polyreactivity |
| QVQLVESGGGLVQAGGSLRLSCAASGLILYTYAMGWSRQAPGQVRELVAAINSGGRTYYADAVKGRFTISRDNAKNTVYLQMNSLKPEDTAVYYCAADYGSRVRGFNYWGQGTQVTVSS | low polyreactivity |
| QVQLVESGGGLVQAGGSLRLSCAASGLILYWYAMGWYRQAPGKERELVAAISISGGSTYYADSVKGRFTISRDNAKNTVYLQMNSLKPDDTAVYYSAAVYFYSWEGDGDYWGLGTQVTVSS | low polyreactivity |
| QVQLVESGGGLVQAGGSLRLSCAASGLISESYAMGWYRQAPGKERELVAAISSGGSTYYADSVKGRFTISRDNAKNTVYLQMNSLKPEDTAVYYCNATGYKYNYGHAYYYAVDYWGQGTQVTVSS | low polyreactivity |
| QVQLVESGGGLVQAGGSLRLSCAASGLIVPWYDMGWYRQAPGKERELVAAINWRGGSTYYADSVKGRFTISRDNAKNTVYLQMKSLKPEDTAVYYCAACYLHRDSYIYDYWGQGTQVTVSS | low polyreactivity |
| QVQLVESGGGLVQAGGSLRLSCAASGLIYFYAMGWYRQAPGKERELVAAISSTGGRTYYADSVKGRFTIARDNAKNTVYLQMNSVKPEDTAVYYCNVLVYNVYTRGYYSYKYYFWGQGTQVTVSS | high polyreactivity |
| QVQLVESGGGLVQAGGSLRLSCAASGLIYPVYAMGWYRQAPGKEREFVAAITYDGGNTYYADSVKGRFTISRDNAKNTVYLQMNSLKPEDTAVYYCAAEGVELISTRDPHDDYWGQGTQVTVSS | low polyreactivity |

| Sequence | polyreactivity (PSR sort gate) |
| --- | --- |
| QVQLVESGGGLVQAGGSLRLSCAASGLIYSYNAMGWTRQAPGKERELVAAISRSGGTPYYADSVKGRFTISRDNANNTVYLQMNSLKPEDTEVYYCAAEIRFLSWEYDYWGQGTQVSVSS | high polyreactivity |
| QVQLVESGGGLVQAGGSLRLSCAASGLIYSYYVMGWNRQAPGKERELVPAINESGGRTYYADSVKGRFTISRDNAKNTVYLEMNSLKPEDTAVYYCAASVLNKIQGYRDYYCGQGTQVTVSS | low polyreactivity |
| QVQLVESGGGLVQAGGSLRLSCAASGLKFGVNPMGWYRPAPGKERELVAAISRDSDTNYADSVKGRFTISRDNAKNTVYLQMISLKPEDTAVYYFNAYSEWPVPSPPRSQSLDYWGQGTQVTVSS | low polyreactivity |
| QVQLVESGGGLVQAGGSLRLSCAASGLMVTYYAMCGYRPAPGKARELVAAINYSGGSTYDADSVKGRFTISRDNAKTTVYLLMNSLKPEDTAVYYCAARRFTQTEGPMGYWGQGTQVTFSS | low polyreactivity |
| QVQLVESGGGLVQAGGSLRLSCAASGLNFGVNAMGLYRQAPGKERELVAAISRSGGSTYYADSVKGRFTISRDNAKNSVYLQMNSLKPEDTAVYYCAAAAWDPKGSRYDYWGHGTQVTVSS | low polyreactivity |
| QVQLVESGGGLVQAGGSLRLSCAASGLNFSYYAMGWYRQAPGKERELVAAINSGGSTYYADSVKGRFTISRDNAKNTVYLQMNRLKQEDTAVYYCAAHLWYHGHLFDYWGQGTQVTVSS | high polyreactivity |
| QVQLVESGGGLVQAGGSLRLSCAASGLNFYDNVMGWSRPAPGKEREFVAAITSIGGSTYYADSVKGRFTISRDNAMNTVYLQMISLKPEDTAVYYCIGKSKYYSPNYDYWGQGTQVTVSS | low polyreactivity |
| QVQLVESGGGLVQAGGSLRLSCAASGLNFYGYFMGWYRQAPGKERELVAAISATGGSTYYADSVKGRFTISRDTAKNTVYLQMNSLKPEETAVYYCAATYYSYTWFSQYYYWGQGTQVTVSS | high polyreactivity |
| QVQLVESGGGLVQAGGSLRLSCAASGLNFYRNAMGWSRQAPGKERELVAAISASGGRTYYADSVKGRFTISRDNAKNTVYLPMNSLKPEDTAVYYCAAKSLWLSMDYWGQGTQVTVSS | high polyreactivity |
| QVQLVESGGGLVQAGGSLRLSCAASGLNQANYAMVWYRQAPGQEREMVAAISSSGGSTYYADSVKGRFTISRDNAKNTVYLQMNSLKPEDTAVYYCAAYPLYRRSWTGDYWGQGTQVTVSS | high polyreactivity |
| QVQLVESGGGLVQAGGSLRLSCAASGLPFRYNVMGWYRQAPGKETALGATISTSAGDTYYADSVKGRFTISRDNAKNTVYLQMNSLKPEDTAVYYCNAEAWYSVEYDDWGQGTQVTVSS | low polyreactivity |
| QVQLVESGGGLVQAGGSLRLSCAASGLSFSYYAMVWYRQAPGKERELVAAITSSGGNTYYADSVKGRFTISRDNANNTVYLQMNSLKPEDTAVYYCNDRRYLRGYGYGYWGQGTQVTVSS | high polyreactivity |
| QVQLVESGGGLVQAGGSLRLSCAASGLSLDVNVMGWYRPAPGKERELVAGIRSDSRTNYADSVKGRFTISRDNAKNTVYLQMNRLKPEDTAVYYCATRDKYISYYTYPYYSWGQGTQVTVSS | low polyreactivity |
| QVQLVESGGGLVQAGGSLRLSCAASGLSSLRMLWDGRDRRLGKKGSWLPLITSGGDSTNYADSVKGRFTISRDNAKNTVYFQMNSLKPEDTAVYYCAADLDYPYGYLGQGTQVTVSS | low polyreactivity |
| QVQLVESGGGLVQAGGSLRLSCAASGLTFADNTMGWYRQAPGKERELVAAIDWSGGGTDYADSVKGRFTISRDNAKNTDYLQMNSLKPEDTAVYYCNAERTSWEDDYWGQGTQVTVSS | low polyreactivity |
